PMC9691602

Key:
[1] = target: AcrIF24 (P. aeruginosa prophage); experiment: SEC-SAXS
[2] = target: AcrIF24 (P. aeruginosa prophage); experiment: cryo-EM structure

Work on AcrIF24 (natural protein) yielded a stoichiometry N [1] of 2 and a stoichiometry N [2] of 2.
